Here are results for three molecules from paper doi:10.1101/2022.12.09.519731 (bioRxiv, 2022).

“And” between values parts separate entries of the source, which are not always exact repeats. Identical values can stand only once.

Assay [1] deals with MalE-RomR (Myxococcus xanthus). Put plainly: mass photometry.
Assay [2] concerns the target MalE-MglC (Myxococcus xanthus). Kind of assay: mass photometry.
A further assay deals with T1, MglA-His6 (Myxococcus xanthus, UniProt Q1DB04 1-195).
T1 sequence: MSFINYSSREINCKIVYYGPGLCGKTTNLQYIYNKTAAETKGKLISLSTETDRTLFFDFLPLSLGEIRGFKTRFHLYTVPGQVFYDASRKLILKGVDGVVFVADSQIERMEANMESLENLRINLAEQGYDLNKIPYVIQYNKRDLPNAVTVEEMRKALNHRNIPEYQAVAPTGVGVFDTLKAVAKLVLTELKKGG
Put plainly: pull-down.

As usually defined, the stoichiometry N is a count of units in the complex or per binding partner. Consider MalE-RomR (natural protein), for which the stoichiometry N in assay [1] is 3 and 2. In assay [2], the stoichiometry N (RomR:MglC (2:2)) worked out at 1 and the stoichiometry N (RomR:MglC (3:2)) turned out to be 1.5.
In the case of MalE-MglC (natural protein), the stoichiometry N in assay [2] turned out to be 2.

B1: His6-MglB (natural protein, Myxococcus xanthus)
chain: MGTQLVMYEEEFTKINAVCDRLTKDANAKVVFLVDKNGQLISSAGQTQNIDTTSLASLTAGNVAAMGGLAKLIGENEFPNQFHEGAKDSLYMTIVGSRVVLVVIFDNRTSLGLVRLRIKKASDELTKIFESLVKKTDSPGAGSPFAEISDDDIDNLFSE
For B1, the binding result with MglA-His6 was “binds”.
